Laboratory results taken from the DeepSol protein solubility set.

test: soluble on expression in E. coli; label from the status in PepcDB or PDB records

| Sequence | soluble on expression in E. coli |
| --- | --- |
| MVLFTRFMLMGIAMPQISRTALVPYSAEQMYQLVNDVQSYPQFLPGCVGSRVLESSPAQMTAAVDVSKAGISKTFTTRNQLTRNQSILMHLVDGPFKKLIGGWKFTPLSPEACRIEFQLDFEFTNKLIELAFGRIFKELASNMVQAFTVRAKEVYRAGLEHHHHHH | not soluble |
| MVLLVMKSSTTIITAYFDIGRGDWTANKGFREKLARSVDVYFSYFERLAALENEMIIFTSPDLKPRVEAIRNGKPTTVIVIDIKKKFRYIRSRIEKIQKDESFTNRLEPRQLKNPEYWSPEYVLVCNLKAYFVNKAINMGLVKTPLVAWIDFGYCRKPNVTRGLKIWDFPFDESKMHLFTIKKGLTVTSQQQVFDFMIGNHVYIIGGAIVGSQHKWKEFYKLVLESQKITLNNNIVDDDQGIFVMCYYKRPDLFNLNYLGRGKWFDLFRCFRSNTLGAKMQALRIFLSRK | not soluble |
| MVLYPLEAEVTMVTSFQDADPMGVIYHGNFFRYFEEARRVLMEKIQYGYRDMQDSGYMWPIIDTRVKYVKAIPFNHTIRITAQLTEWENRLRVDYVIYDAETNQRMCKAHTTQVAVSIEKQEMCFVSPAVFLDKVEQWHNHGLEHHHHHH | not soluble |
| MVPAESNAVQAKLAKTLQRFENKIKAGDYYEAHQTLRTIANRYVRSKSYEHAIELISQGALSFLKAKQGGSGTDLIFYLLEVYDLAEVKVDDISVARLVRLIAELDPSEPNLKDVITGMNNWSIKFSEYKFGDPYLHNTIGSKLLEGDFVYEAERYFMLGTHDSMIKYVDLLWDWLCQVDDIEDSTVAEFFSRLVFNYLFISNISFAHESKDIFLERFIEKFHPKYEKIDKNGYEIVFFEDYSDLNFLQLLLITCQTKDKSYFLNLKNHYLDFSQAYKSELEFLGQEYFNIVAPKQTNFLQDMMSGFLGGSK | soluble |
| MVPITHQNLIEMMTYALVLSGNRVITSGATGTNSAAIKGAMRADPNLLTVILPQSLERQPQESRQQLEQVMHLVENPSNDNLSLAEASYLCNKEIVSRCQQLICFAFHDSRTLLQTCGDAEEQRKVVTLFYFDLEHHHHHH | not soluble |
| MVQDQIRYDILVQDALRGVIRKVLSEVAKAGLPGSHHFFITFLTNAPGVKISTRLKSRYPEQMTIVLQHQFRDLNVSETAFEVTLSFREVSEKLVIPFHSIQVFYDPVAAFEAAFDLPSNLNSKEGENLENIASTPVILSDTQKKEKKFPKEQISKTNKDSSNNDTKQSADVVSLDSFRKK | not soluble |
| MVQDWEFIVSFLKINWILMNHVTAPYSYVDVSYDNIPFVGKIPIIGKDGTSSRLGVSPFYPADGNPSNPFPPIYKARPLPLHVPEPQDVVAVPLDEEALHGEPLFPPELILPSELAAEEAAKKKALETKKPENPFADVVETNEQLDTVHWPTAVSTSEIEGEDSQGKNMVQEDEPQRSVIIDEAREKPMQPFEAAKISIGANDRPKNPFRSRRILMERF | not soluble |
| MVQQKIANLLQGDFRYQIQYNWVSLENISPNIQLAVISSEDQRFLEHLGFDFEAIQRAIRYNEKSNKGIRGASTISQQTAKNLMLWHGQNWLRKGLEVPATMLLELTWSKKRILEVYLNIAEFGNGIFGVEAASRYYFKKSAKNLSQNEAALLAAVLPNPIIYKVNKPSLLVRKKQTWILRQMGNLGTEYLSHL | not soluble |
| MVQQSEVRQMKHSVSTLNQEMTQLNQETVKITQQNRLNAKSSSGVYLLPGAKTPARLESQIGTLRMSLVNITPDADGTTLTLRIQGESNDPLPAFSGTVEYGQIQGTIDNFQEINVQNQLINAPASVLAPSDVDIPLQLKGISVDQLGFVRIHDIQPVMQLEHHHHHH | soluble |
| MVRIEVIDIEKPEGVEVIIGQGNFSIFTVDDLARALLTAVPGIKFGIAMNEAKPQLTRYTGNDPELEALAAKNAVKIGAGHVFVILMKNAYPINVLNTIKNHPAVAMIYGASENPFQVIVAETELGRAVIGVVDGKAANKIETDEQKKERRELVEKIGYKID | soluble |
| MVRVVIESELVRTEKELPNSLKLRQFKDRLYHVTGVEPEDMEIVVKRQYDNKEIYSTKKGGAYSNEDEDANFLKGEEELIVVVTDSNAQSISNQLATQAEGIPSMEVISEEDYLRRDQSVLRWKMAHGYGRFNAAQQSQRAALAKQDEAYAREQLTAAIGRHCRVTVDGSAPREAILRYVGPLPLDVMGTWCGVEFPEAAGKNDGRINGVTLFGPVAPGHGSFVRPRAVEILSKDEESAEVEDVHDDVESDDEI | soluble |
| MVRYWIYLLSDDVASHYRHRAEKIVELLREHQYAKAPLKAICRKQVEFITERLSFSRLELGLKQYFAGRVGKNLERNMFVLQNDAGEEALLVVQKRRLLLVADSAPLASDIGRALARLSPTFLAVDADFVDYYWLSAPRQGRKFA | not soluble |
| MVSGGTFNAGVEKIRPGIYTNFKAAAAERTKAGERGTVALPLAASWGAAKEFVEINKEEDVEKKLGLSLAHQSFLLLRETLKLAKTVLVYRLNDGIKATATLATDVVVTAKYGGIVGNSITIKVDENVVDSSKKDVTTYLNEVAVDKQVVGTASELIDSNYVSFKTTSTSELQQSSGTTLVGGTDQPVTNLDYTQFLVSAEGEYFDTIAFPVSSSDVALKTSFVSFVKRMRDEQGVKIKGVVANMPADYEGIINVRNGVTLRDGTILEPHQVVAWVAGADASASMLKSNTFVKYDGAIDATPRLANDEAEEALQNGEFVLTFDARDKAVYVEQDLNSLTTFSKEKSSKFRKNKISRILDGINNDTRRNILDAIKERKDANTDIPADENGVQFILSMQTAYLNELQDSGAITNFDSTADITVSLNNNVDGFIVNQSIEPVDSGEKFYFTTEVKLEHHHHHH | soluble |
| MVSGYTQSEIDSIAGWLRAGDSASKAAAKLSTMRGRAVSRNAIIGIVHRNAKLAAIGFGRAKSSPASEGSSTYTPEEIKLVADCLKAKRNYVQIAQRLALKSGRIISRFGVKSLIRRTPELNEIGFRGKKGRPSDKKKAAPGQLPGRLFIAATADIDRDPSAFDYLTRPAVRALASQPHFAAMRFVDCLPARCRAPLSYDLEERPGPDMLCCGHLAMPSRSYCAYHEIRLTARKAEFIAEAALEHHHHHH | soluble |
| MVSIRRSFEAYVDDMNIITVLIPAEQKEIMTPPFRLETEITDFPLAVREEYSLEAKYKYVCVSDHPVTFGKIHCVRASSGHKTDLQIGAVIRTAAFDDEFYYDGELGAVYTADHTVFKVWAPAATSAAVKLSHPNKSGRTFQMTRLEKGVYAVTVTGDLHGYEYLFCICNNSEWMETVDQYAKAVTVNGEKGVVLRPDQMKWTAPLKPFSHPVDAVIYETHLRDFSIHENSGMINKGKYLALTETDTQTANGSSSGLAYVKELGVTHVELLPVNDFAGVDEEKPLDAYNWGYNPLHFFAPEGSYASNPHDPQTRKTELKQMINTLHQHGLRVILDVVFNHVYKRENSPFEKTVPGYFFRHDECGKPSNGTGVGNDIASERRMARKFIADCVVYWLEEYNVDGFRFDLLGILDIDTVLYMKEKATKAKPGILLFGEGWDLATPLPHEQKAALANAPRMPGIGFFNDMFRDAVKGNTFHLKATGFALGNGESAQAVMHGIAGSSGWKALAPIVPEPSQSINYVESHDNHTFWDKMSFALPQENDSRKRSRQRLAVAIILLAQGVPFIHSGQEFFRTKQGVENSYQSSDSINQLDWDRRETFKEDVHYIRRLISLRKAHPAFRLRSAADIQRHLECLTLKEHLIAYRLYDLDEVDEWKDIIVIHHASPDSVEWRLPNDIPYRLLCDPSGFQEDPTEIKKTVAVNGIGTVILYLASDLKSFA | soluble |
| MVSLRELRGGLMSNKYCQALVELRNKPAHELKEVGDQWRTPDNIFWGINTLFGPFVLDLFTDGDNAKCAAYYTAEDNALAHDWSERLAELKGAAFGNPPYPWLEHHHHHH | not soluble |
| MVSLRSGKRVSRPSPSTPLEKPAETSTNPMETPKRAVKGQKTVEEKEKLPISLRKSERLAKNSGENSSAEIAEEHKEIVAPSQENSVDDDAESTQLSVDVFADPSDFEDDDDEVVPETDYEDNNEEPKNDQNPVEIPDNSDSDDDEPMEISSKNPVTSIENPENSDSDDDEPMEATSKAPEMSVAEPKSIIEKLLEKKAEKSAKLAAKKLKKRSKKKEAKKISDGVFQVKMKKSKAKFNVVTLKAGVQNILEPQINFREELLKSRTAGTRLADTEKFLQRGKWVSKR | soluble |
| MVSLRTSNRGIVMIDAVVTWVDGADPAHHAKRLRHQGEAGVHQAATAPTRFAHSGEIRFCVLSLLRFCPFVERIHIVTDDQHPAVLDPILDDPHWRDRIAVVDHRAIYGEHADLLPVFSSRSIETMIHRIPGLAPRFIYLNDDIFVGRPLDESHFFDGDRAVLRGRMQPFPNPLVTRLKRWLKRERPGYKTAQQAAARLTGRTSDYFLTEHQPHPMHRDRLASFYAGDPQALRRQAGHRFRSADQVSPIGLANHLEIEARAVIAPPLDVGYIRPGRPTGTALARTMERLCANGYASFCVQSLDAMSEADRRCVLEGLERHYALEHHHHHH | soluble |
| MVTEFAKEMIKNADSCGAQDIYVIPRQDNYELYMRVGQERRLIDVYRPDFMASLIGHFKFVAGMMVGEKRRSQLGSCDYDCGDGHLVSLRLSTVGDYRGLESLVIRILH | not soluble |
| MVTFLGNPVSFTGKQLQVGDKALDFSLTTTDLSKKSLADFDGKKKVLSVVPSIDTGICSTQTRRFNEELAGLDNTVVLTVSMDLPFAQKRWCGAEGLDNAIMLSDYFDHSFGRDYALLINEWHLLARAVFVLDTDNTIRYVEYVDNINSEPNFEAAIAAAKAL | soluble |
| MVTIANDFLTVKISRHGAELTSIKDNLTGRERLWQADPAVWGRHAPVLFPIVGALADNQYHYAGKTYHMGQHGFARDRDFTVLSATPFKASFVLKDDDKTRAMYPFAFRLIITFALENNNLHVTYHVDNPDKSEPLFFSIGGHPGFKVPMTPDTQFSDYYLNFKPRKSLVQIPLVAGEGIDYTHRTLAATDANLALTHETFDHDALIFALLGKTTFNLVSDKTKHGVSVTMTDTPYLGVWSPYPTTGDFVCIEPWWGIADTIGSTGDLTRKLGINRLEPGTAFEKGYMISIFLEHHHHHH | not soluble |
| MVTPVSICNYISLPDDFPARNIAPQVKEVLKDFIDALSTIICDEEWRTSLNTNSATKKIFNNLDNLSYIQRTSFRGNDTLYNEKVQFKLTYPVKNGRHKENIEFQVVINLSPIYLDNFRHDGEINIFCAPNPKPVTMGRVFQTGVERVLFLFMNDFIEQFPMINLGAPIKRAHTPHIEPLPPDHHTAADYLRQFDLLVLNFISRGNFVILPRLWNNSEVHRWFVNKDPNLITAILDITDSELKEDLLQSLMDSLGSNKHVQPEVCICFLSLLAEQESPHFQDLFLFFANMLLHYHQFMNPNESDLNDVLMPASLSDDKIIKHMARRTLKLFVKNETPPKVTHEDLVKNRPRSPVRPPIPATAKTPDLPERH | not soluble |
| MVTVVDRVTDRRLRHPEKAHRPDTSVQKKPDWIRVKAPTSQVYKETHGIVRAHKLVTVCEEAGCPNIGECWSQRHASFMILGEICTRACAFCNVATGIPFAVDENEPERVADAVARMELKHVVITSVDRDDLADGGAEHFAKVIYAIRRKAPKTTIEVLTPDFRHKDGALEIVVAAKPDVFNHNLETVPSKYLKVRPGARYFHSIRLLQRVKELDPTIFTKSGIMVGLGEERNEILQLMDDLRSADVDFMTIGQYLQPTRKHHPVIRFVPPEEFESFAKIGKVKGFLHMASNPLTRSSHHAGDDFAILQKARDEKFALQR | not soluble |
| MVVRVDETTAPLFRQIAALIEDSIVEGSLSSGERAPSTNELAAFHSINPATARKGLQLLVDAGVLEKKRGLGMFVTDNAVELIRGRRRDDFAAAYLAPLVDEAVKLTISKTELHNLIDRVAESRGLYE | soluble |
